Test results from patent publication US20170166631A1 (published 2017).
Where two headings read alike, the source gives them in different places.

T1: HD49 (huntingtin exon 1 protein with 49 polyQ repeats after cleavage of the GST tag; aggregation reaction) (human, UniProt P42858 1-88)
T1 chain: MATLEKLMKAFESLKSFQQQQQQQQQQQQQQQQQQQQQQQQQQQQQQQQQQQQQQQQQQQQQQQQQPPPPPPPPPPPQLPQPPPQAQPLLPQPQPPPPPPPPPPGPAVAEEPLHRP

T2: HD21 (huntingtin exon 1 protein with 21 polyQ repeats after cleavage of the GST tag; aggregation reaction) (human, UniProt P42858 1-88)
T2 chain: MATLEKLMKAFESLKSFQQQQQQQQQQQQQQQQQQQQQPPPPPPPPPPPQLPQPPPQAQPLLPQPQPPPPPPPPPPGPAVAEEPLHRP

T3: BSA-coupled synthetic peptide of the P-rich domain sequence of huntingtin exon 1 (coupled to BSA)
T3 peptide: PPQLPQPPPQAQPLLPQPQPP


Assays:
Assay in all cases: ELISA
[1] = molecular target: T1, HD49 (huntingtin exon 1 protein with 49 …)
[2] = molecular target: T4, GST-HttExon1Q21 (recombinant huntingtin exon 1 protein with 21 polyQ repeats fused to an N-terminal GST tag) (;human, UniProt P08515 1-218 = GST; P42858 1-88)
Target sequence in this assay (P08515 1-218, tags or fused parts left off): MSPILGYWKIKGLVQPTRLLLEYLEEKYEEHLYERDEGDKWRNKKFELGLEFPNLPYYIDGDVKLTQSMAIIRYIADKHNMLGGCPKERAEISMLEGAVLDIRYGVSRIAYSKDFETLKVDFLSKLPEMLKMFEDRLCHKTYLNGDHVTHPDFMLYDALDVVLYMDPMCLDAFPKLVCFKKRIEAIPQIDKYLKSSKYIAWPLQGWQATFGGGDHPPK

[3] = molecular target: T2, HD21 (huntingtin exon 1 protein with 21 …)
[4] = molecular target: T4, GST-HttExon1Q21 (recombinant huntingtin …); remark: listed apart in the source
[5] = molecular target: T2, HD21 (huntingtin exon 1 protein with 21 …)
[6] = molecular target: T3, BSA-coupled synthetic peptide of the …
[7] = molecular target: T1, HD49 (huntingtin exon 1 protein with 49 …)
[8] = molecular target: T4, GST-HttExon1Q21 (recombinant huntingtin …); remark: listed apart in the source
[9] = molecular target: T2, HD21 (huntingtin exon 1 protein with 21 …)
[10] = molecular target: T1, HD49 (huntingtin exon 1 protein with 49 …)
[11] = molecular target: T4, GST-HttExon1Q21 (recombinant huntingtin …); remark: listed apart in the source
[12] = molecular target: T1, HD49 (huntingtin exon 1 protein with 49 …)
[13] = molecular target: T4, GST-HttExon1Q21 (recombinant huntingtin …); remark: listed apart in the source
Target sequence in this assay (P08515 1-218, tags or fused parts left off): as above

[14] = molecular target: T2, HD21 (huntingtin exon 1 protein with 21 …)
[15] = molecular target: T1, HD49 (huntingtin exon 1 protein with 49 …)
[16] = molecular target: T4, GST-HttExon1Q21 (recombinant huntingtin …); remark: listed apart in the source
[17] = molecular target: T2, HD21 (huntingtin exon 1 protein with 21 …)

Binder | EC50 [1] [nM] | EC50 [2] [nM] | EC50 [3] [nM] | EC50 [12] [nM] | EC50 [13] [nM] | EC50 [14] [nM] | further results
NI-302.15F9 (antibody, V domains shown) VH: EVQLVESGGGLVTPGGSLRLSCEASGFLFKNSSMNWVRQTPGKGLEWVSSIDTSATNYKYYADSVKGRFTISRDDATNSLYLQMNSLRADDTATYYCARGYYTPRDFDYWGQGTLVTVSS VL: DVVMTQSPQTLSVSLGQAASISCRSSQSLLYRDNNTYLNWFHQRPGQSPRRLIYRASDRDSGVPDRFSGGGSGTDFTLKISGVEAEDVGTYYCMQGTHWPRTFGQGTKVEIK | 6 | 11 | 35 |  |  |  | 
NI-302.7D8 (antibody, V domains shown) VH: QVQLVQSGSELKKPGASVKVSCKASGYNFNNYAINWLRQAPGQGLEWMGWINTITGHPTYAQGFKGRFVFSLDTSVSTAYLQISSLKPEDTAVYYCARTYSNYGEFDYWGQGTLVTVSS VL: QSALTQPASVSGSRGQSITISCTGTSSDVGSYNLVSWYQQYPGKAPKLIIHEGSERPSGVSNRFSGSKSGNTASLTISGLQAEDEADYYCCSYAGTTTFVLFGGGTKLTVL |  | 51 | > 100 |  |  |  | EC50 [4]: 51 nM; EC50 [5]: > 100 nM
NI-302.31F11 (antibody, V domains shown) VH: EVQLVESGGGLIQPGGSLRLSCAASGFTVSSTYMSWVRQAPGKGLECVSVIFSGADTYYADSVKGRFTVSRDNSKNTLFLQMNSLRVEDTATYYCVRHYYGSDLPSDFWGQGTLVTVSS VL: DVVMTQSPLSLPVAPGEPASISCRSSQSLLYSNGYNYLDWYLQKPGKPPQLLVYLGSDRASGVPDRFSGSGSGKDFTLNISRVEAEDVGVYYCMQGLQSPWTFGQGTKLEIK | 0.6 | 0.9 | 4.3 |  |  |  | EC50 [6]: 0.5 nM; EC50 [7]: 0.6 nM; EC50 [8]: 0.9 nM; EC50 [9]: 4.3 nM
NI-302.4A6 (antibody, V domains shown) VH: EVQLVESGGGLVQPGGSLRLSCAASGFTFSAYAMSWVRQAPGKGLEWVSTISGSGGSTYYADSVKGRFSISRDNSKNTLYLQMNSLRAEDTAVYFCAKVTTELYGANSYYYYMDVWGKGTTVTVSS VL: EIVLTQSPGTLSLSPGERATLSCRASQSVVSRYLAWYQQKPGQAPRLLIYGASSRATGIPDRFSGSGSGTDFTLTISRLEPEDFAMYYCQLYGNSQTFGQGTKVEIK | 3 | 3 |  |  |  |  | EC50 [10]: 3 nM; EC50 [11]: 3 nM
NI-302.8M1 (antibody, V domains shown) VH: EVQLVQSGAEVKKPGASVKVSCKASGYTFTIYYMHWVRQAPGQGLEWMGGISPSGAHTMYAQNFQGRVTVTRDTSTSTVYMELSSLRSEDTAVYYCARGSTVTNYRPFDYWGQGTLVTVSS VL: DIQMTQSPSSLSASVGDRVTITCRASQDISNYLAWYQQKPGKVPKLLIFAASTLQSGVPSRFGGSGSGTDFTLTISSLQPEDVATYYCQNYNSGPPPFGPGTKVDIK | 0.003 | 0.002 |  |  |  |  | EC50 [10]: 0.003 nM; EC50 [11]: 0.002 nM
NI-302.12H2 (antibody, V domains shown) VH: EVQLVQSGGGLVQPGGSLRLSCEASGFTFSNYAMGWVRQAPGKGLEWVSVISGTGGSTYYADSVKGRFTISRDNSMNTLYLQMNSPRADDTAVYYCAKDLRKISGPLYYYGMDVWGQGTTVTVSS VL: EIVLTQSPGTLSLSPGERATLSCRASQSVSSGYLAWYQQKPGQAPRLLIYGASTRATGIPDRFSGSGSGTDFTLTISRLEPEDFAVYYCQHYGASSYTFGQGTKLEIK | 0.04 | 0.04 |  |  |  |  | EC50 [10]: 0.04 nM; EC50 [11]: 0.04 nM
NI-302.52C9 (antibody, V domains shown) VH: EVQLVQSGGGLVQPGGSLRLSCAGSGFTVSDTYMSWVRQAPGKGLEWVSGIHAGGETYYADSVKGRFTISRDNSKNTLYLQMNRLTPEDTAVFYCARHYYGNDDDTDYWGQGTLVTVSS VL: DVVMTQSPLSLPVTPGEPASISCRSSQSLLHSNGYNYLDWYVQKPGQSPQLLIYLGSTRASGVPDRFSGSGSGTDFTLKISRVEAEDVGVYYCLQAQQIPWTFGQGTKVEIK |  |  |  | 30 | 10.2 | 28 | 
NI-302.18A1 (antibody, V domains shown) VH: QLQLQESGPGLVKPSEALSLTCTVSGGSITTDYYYWGWIRQSPGKGLEWVGTIYFGGATYYNPSLRNRVSISVDTSNTRLSLRLISLSAADTAVYYCARVGYLDRSGLLVGQGTLVTVSS VL: EIVLTQSPLSVPVTPGEPASISCRSSQSLLHNNGYNYLDWYLKKPGQSPQLLIYLGSTRASGVPDRFSASGSGTDFTLEISRVEAEDVGVYYCMQALQTPPTFGRGTKVEIK |  |  |  | 0.03 | 0.04 | 0.02 | 
NI-302.6N9 (antibody, V domains shown) VH: EVQLVESGGDLVQPGGSLRLSCVVSGFTFSSYAMTWVRQAPGKGLAWVSTISATGGSTFYTDSVRGRFTISRDNSKNTLYLQMNSLRTDDTAIYYCVKDLFGVDTSYYGMDVWGQGTTVTVSS VL: EIVLTQSPGTLSLSPGERATLSCRPSQSVSGRYVAWYQQKPGQAPRLLFYAASNRAIGIPDRFSGSGSGTDFTLTISRLEPEDFAVYYCQHYGASSYTFGPGTKVDIK | 0.19 | 0.24 | 0.21 |  |  |  | EC50 [7]: 0.19 nM; EC50 [8]: 0.24 nM; EC50 [9]: 0.21 nM
NI-302.55D8 (antibody, V domains shown) VH: QVQLVQSGSEVKKPGASVKVSCKASGYTFTDYYIHWVRQAPGQGLEWMGRINPNNGGTNYAQNFQGWVTMTRDTSISTAYMELSRLRSDDTAVYYCARVGGELLREGGYHYYMDVWGKGTTVTVSS VL: QSVLTQPPSVSGAPGQRVTISCTGNSSNIGAGYDVHWYQQLPGTAPKLLIFDNTNRPSGVPDRFSGSKSGTSASLAITGLQAEDEANYHCQSYDNSLSGSWVFGGGTKLTVL |  |  |  | 1.7 | 0.2 | 1.2 | EC50 [15]: 1.7 nM; EC50 [16]: ~0.2 nM; EC50 [17]: 1.2 nM
NI-302.74C11 (antibody, V domains shown) VH: EVQLVQSGTEVQKPGASVKVSCKASGYSFTGYFLHWVRQAPGQGLEWMGWINPNSGDTNYAEKFRGRIIMTRDTSVSTAHMELSSLRFDDTALYYCTREAPDPGAETDVWGQGTTVTVSS VL: QSVLTQPPSVSVSPGQTARITCSGDAVPKQYIYWYQQKPGQAPILVIYKDTQRPSGIPERFSGSNSGTTVTLTITGVQADDEGDYYCQSADSSATWVFGGGTKLTVL | 0.5 | 0.5 | 0.5 |  |  |  | EC50 [7]: 0.5 nM; EC50 [8]: 0.5 nM; EC50 [9]: 0.5 nM
NI-302.8F1 (antibody, V domains shown) VH: EVQLVESGGGLVKPGGSLTISCAASGFTFSNAWMNWVRQAPGKGLEWVGHIRTQAEGGTSDYAAPVKGRFTISRDDSKNTLYLQMNSLKTEDTAVYYCIPPPYYYYYGLDVWGQGTTVTVSS VL: QSALTQPASVSGSPGQSITISCTGASSDVGTYDLVSWYQQHPGKAPKLIIYEVNKRPSGVSYRFSASKSANTASLTISGLQAEDEAEYYCCSYAGYSTVFGGGTKLTVL |  |  |  | 1.9 | 0.8 | 1.6 | 
